Consider five compounds from US10562947B2, “Compositions and methods for preventing or treating diseases, conditions or processes characterized by aberrant fibroblast proliferation and extracellular matrix deposition” (MOERAE MATRIX, INC., priority 2011, dated 2020).

Assay [1] deals with bleomycin-induced lung fibrosis in C57BL/6 mice. Put plainly: Bleomycin mouse model of pulmonary fibrosis, prevention model (dosing day 7 to 21). It is filed as in vivo. The note with it: for collagen levels in the lung (Masson's blue trichrome), dose response: 25, 50 or 75 μg/kg daily IP, day 7 to 21. The procedure: A mouse model of pulmonary fibrosis was generated by administering 0.025 U of bleomycin/PBS intratracheally to C57BL/6 mice. […] At 21 day post bleomycin delivery (for prevention model) or 28 post bleomycin delivery (for treatment model), groups of mice were sacrificed with a sodium pentobarbital injection (120 mg/kg) and the chest cavity was opened. The right mainstem bronchus was ligated and the right lung was removed. The trachea was cannulated and the left lung was perfused with 4% formaldehyde at 21 cm H2O pressure. The tissue blocks then were embedded in paraffin, and […] sections were prepared for staining. Sections from each animal were stained with hematoxylin and eosin (H&E) to visualize cells or with Masson's Trichrome staining to highlight collagen deposition. […] Stained sections were mounted onto a labeled glass slide with organic mounting medium.
Briefly, fibrotic loci in the lungs of the mice were induced by delivering intratracheally about 0.025 U of bleomycin (dissolved in PBS) to C57BL/6 mice. […] Briefly, mice were sacrificed with a sodium pentobarbital injection (120 mg/kg) and the chest cavity was opened. The right mainstem bronchus was ligated and the right lung was removed. The trachea was cannulated and the left lung was perfused with 4% formaldehyde at 21 cm H2O pressure. The tissue blocks then were embedded in paraffin, and […] sections were prepared, and stained with hematoxylin and eosin (H&E; for pathological examination) or Masson's Trichrome (for collagen staining)
Next, total collagen levels in the lungs of the bleomycin-injured mice (FIG. 12) were analyzed quantitatively by computing a constant conversion factor (7.5) for collagen from hydroxyproline concentrations (Neuman R. and Logan M, J Biol Chem., 186(2):549-56, 1950, incorporated by reference).
Next, the effect of increasing doses of MK2 peptide inhibitors on collagen deposition was examined in vivo using the bleomycin mouse model of idiopathic pulmonary fibrosis (prevention model). Briefly, C57-BL/6 mice were subjected to bleomycin injury at day 0.

The target of assay [2] is Abl(M351T)(h) (Homo sapiens, UniProt P00519, M351T). Put plainly: Kinase Profiling Assay. It is filed as biochemical. Conditions: 100 μM peptide. The method in brief: (§1)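 MK2 inhibitory peptides were screened for specificity across a commercial panel of 266 human kinases, and each kinase activity measurement was run in duplicate.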
Assay [3] deals with T1, JNK1α1(h) (Homo sapiens, UniProt P45983).
T1 construct: purchased Millipore
Put plainly: Kinase Profiling Assay. It is filed as biochemical. The note with it: 100 μM peptide. A digest of the protocol:
as §1

Assay [4] deals with Lck(h) (Homo sapiens, UniProt P06239). Briefly: Kinase Profiling Assay. It is filed as biochemical. The note with it: 100 μM peptide. The method in brief: as §1
For assay [5], the target named is PAK3(h) (Homo sapiens, UniProt O75914). Put plainly: Kinase Profiling Assay. It is filed as biochemical. Conditions: 100 μM peptide. The method in brief: as §1
Assay [6] addresses CK2α2(h) (Homo sapiens, UniProt P19784). Briefly: Kinase Profiling Assay. It is filed as biochemical. Conditions: 100 μM peptide. A digest of the protocol:
as §1

Assay [7] has as its target T2, GRK5(h) (Homo sapiens, UniProt P34947).
T2 construct: purchased Millipore
Briefly: Kinase Profiling Assay. It is filed as biochemical. The note with it: 100 μM peptide. The method in brief: as §1

The target of assay [8] is T3, IGF-1R(h) (Homo sapiens, UniProt P08069).
T3 construct: purchased Millipore
Put plainly: Kinase Profiling Assay. It is filed as biochemical. Conditions: 100 μM peptide. A digest of the protocol: as §1

Assay [9] has as its target T4, JAK3(h) (Homo sapiens, UniProt P52333).
T4 construct: purchased Millipore
T4 sequence (P52333 1-1124): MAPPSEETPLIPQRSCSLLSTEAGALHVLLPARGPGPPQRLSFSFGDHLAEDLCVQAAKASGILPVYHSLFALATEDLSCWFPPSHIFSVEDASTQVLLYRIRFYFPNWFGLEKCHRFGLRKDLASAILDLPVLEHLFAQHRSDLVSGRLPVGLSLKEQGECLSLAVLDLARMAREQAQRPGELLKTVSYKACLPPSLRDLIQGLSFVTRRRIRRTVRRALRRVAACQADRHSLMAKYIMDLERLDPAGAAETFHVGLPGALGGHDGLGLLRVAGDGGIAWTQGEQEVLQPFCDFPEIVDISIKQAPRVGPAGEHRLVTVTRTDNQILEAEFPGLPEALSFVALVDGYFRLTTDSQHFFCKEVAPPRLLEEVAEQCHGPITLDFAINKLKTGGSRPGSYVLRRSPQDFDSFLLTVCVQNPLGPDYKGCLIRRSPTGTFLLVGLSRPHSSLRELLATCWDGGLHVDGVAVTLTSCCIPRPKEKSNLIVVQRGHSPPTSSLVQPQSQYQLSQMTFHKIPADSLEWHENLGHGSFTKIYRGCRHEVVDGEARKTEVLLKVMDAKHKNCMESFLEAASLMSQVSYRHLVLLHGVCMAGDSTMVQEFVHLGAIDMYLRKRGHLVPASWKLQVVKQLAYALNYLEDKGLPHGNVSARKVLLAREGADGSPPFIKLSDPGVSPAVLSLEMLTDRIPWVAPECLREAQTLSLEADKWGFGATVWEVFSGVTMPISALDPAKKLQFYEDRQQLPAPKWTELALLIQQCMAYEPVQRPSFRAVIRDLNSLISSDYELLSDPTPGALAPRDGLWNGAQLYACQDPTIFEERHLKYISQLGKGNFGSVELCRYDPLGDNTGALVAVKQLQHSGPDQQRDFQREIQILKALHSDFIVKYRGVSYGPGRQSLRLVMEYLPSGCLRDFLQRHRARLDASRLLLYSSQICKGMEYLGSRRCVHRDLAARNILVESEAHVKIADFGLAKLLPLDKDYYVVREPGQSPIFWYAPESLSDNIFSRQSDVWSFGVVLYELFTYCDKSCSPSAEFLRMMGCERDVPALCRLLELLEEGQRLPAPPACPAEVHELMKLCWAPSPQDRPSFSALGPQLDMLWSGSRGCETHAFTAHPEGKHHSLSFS
Put plainly: Kinase Profiling Assay. Conditions: 100 μM peptide. It is filed as biochemical. The method in brief:
as §1

Assay [10] deals with MAPK1(h) (Homo sapiens, UniProt P27361). Put plainly: Kinase Profiling Assay. It is filed as biochemical. The note with it: 100 μM peptide. A digest of the protocol:
as §1

For assay [11], the target named is PDGFRα(D842V)(h) (Homo sapiens, UniProt P16234, D842V). Put plainly: Kinase Profiling Assay. It is filed as biochemical. Conditions: 100 μM peptide. The method in brief: as §1
The target of assay [12] is cKit(V560G)(h) (Homo sapiens, UniProt P10721, V560G). Briefly: Kinase Profiling Assay. It is filed as biochemical. Conditions: 100 μM peptide. The method in brief:
as §1

Setting [13] is: nebulization or intraperitoneal, daily day 7 to 21, lung at day 21.

Where a SMILES comes first, the peptide text is derived from it.

T1 sequence (P45983 1-384 isoform P45983-2): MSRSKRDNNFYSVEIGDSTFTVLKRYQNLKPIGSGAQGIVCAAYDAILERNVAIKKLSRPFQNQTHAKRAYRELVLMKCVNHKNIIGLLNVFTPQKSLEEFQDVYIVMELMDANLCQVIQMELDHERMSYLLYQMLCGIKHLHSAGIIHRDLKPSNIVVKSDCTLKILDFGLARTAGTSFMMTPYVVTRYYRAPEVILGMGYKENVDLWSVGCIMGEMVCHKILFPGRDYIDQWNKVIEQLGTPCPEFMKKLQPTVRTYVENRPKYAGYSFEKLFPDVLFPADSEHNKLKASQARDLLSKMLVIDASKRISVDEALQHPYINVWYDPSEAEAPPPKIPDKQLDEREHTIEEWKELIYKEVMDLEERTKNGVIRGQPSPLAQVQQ
Sequence of CK2α2(h) (P19784 whole entry): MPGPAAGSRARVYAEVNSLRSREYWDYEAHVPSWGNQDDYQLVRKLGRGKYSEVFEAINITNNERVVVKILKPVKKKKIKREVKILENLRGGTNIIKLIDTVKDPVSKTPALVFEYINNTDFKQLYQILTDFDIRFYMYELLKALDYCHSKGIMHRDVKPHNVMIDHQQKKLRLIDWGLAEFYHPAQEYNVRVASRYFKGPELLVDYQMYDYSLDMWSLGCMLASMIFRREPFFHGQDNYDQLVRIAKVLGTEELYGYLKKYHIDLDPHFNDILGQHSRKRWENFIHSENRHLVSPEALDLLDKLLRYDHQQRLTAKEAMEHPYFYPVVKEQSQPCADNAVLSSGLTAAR
T2 sequence (P34947 whole entry): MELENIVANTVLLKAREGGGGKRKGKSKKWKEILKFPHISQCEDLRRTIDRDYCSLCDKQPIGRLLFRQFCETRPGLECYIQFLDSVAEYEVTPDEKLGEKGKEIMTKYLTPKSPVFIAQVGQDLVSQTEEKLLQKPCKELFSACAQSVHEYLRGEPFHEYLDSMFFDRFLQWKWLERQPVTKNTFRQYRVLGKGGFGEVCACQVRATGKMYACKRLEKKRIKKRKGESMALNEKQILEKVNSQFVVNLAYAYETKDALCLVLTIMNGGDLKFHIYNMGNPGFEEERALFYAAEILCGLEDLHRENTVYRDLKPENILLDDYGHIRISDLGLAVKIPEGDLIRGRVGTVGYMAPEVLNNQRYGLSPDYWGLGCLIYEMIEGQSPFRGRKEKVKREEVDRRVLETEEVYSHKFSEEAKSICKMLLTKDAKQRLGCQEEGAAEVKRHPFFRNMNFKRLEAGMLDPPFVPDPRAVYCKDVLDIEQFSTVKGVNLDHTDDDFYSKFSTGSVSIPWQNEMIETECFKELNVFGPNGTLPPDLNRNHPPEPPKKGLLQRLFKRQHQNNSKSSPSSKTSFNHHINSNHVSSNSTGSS
Sequence of MAPK1(h) (P27361 whole entry): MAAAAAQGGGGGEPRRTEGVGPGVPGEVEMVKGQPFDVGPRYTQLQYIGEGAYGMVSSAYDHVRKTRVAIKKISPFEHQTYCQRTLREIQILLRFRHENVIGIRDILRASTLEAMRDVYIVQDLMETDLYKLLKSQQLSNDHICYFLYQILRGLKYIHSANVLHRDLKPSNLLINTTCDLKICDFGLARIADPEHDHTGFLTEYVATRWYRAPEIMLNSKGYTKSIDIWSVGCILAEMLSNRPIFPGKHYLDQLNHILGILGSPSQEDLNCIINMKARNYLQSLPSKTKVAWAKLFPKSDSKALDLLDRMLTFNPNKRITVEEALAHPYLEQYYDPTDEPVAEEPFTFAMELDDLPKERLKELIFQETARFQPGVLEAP
Sequence of PDGFRα(D842V)(h) (P16234 24-1089 D842V): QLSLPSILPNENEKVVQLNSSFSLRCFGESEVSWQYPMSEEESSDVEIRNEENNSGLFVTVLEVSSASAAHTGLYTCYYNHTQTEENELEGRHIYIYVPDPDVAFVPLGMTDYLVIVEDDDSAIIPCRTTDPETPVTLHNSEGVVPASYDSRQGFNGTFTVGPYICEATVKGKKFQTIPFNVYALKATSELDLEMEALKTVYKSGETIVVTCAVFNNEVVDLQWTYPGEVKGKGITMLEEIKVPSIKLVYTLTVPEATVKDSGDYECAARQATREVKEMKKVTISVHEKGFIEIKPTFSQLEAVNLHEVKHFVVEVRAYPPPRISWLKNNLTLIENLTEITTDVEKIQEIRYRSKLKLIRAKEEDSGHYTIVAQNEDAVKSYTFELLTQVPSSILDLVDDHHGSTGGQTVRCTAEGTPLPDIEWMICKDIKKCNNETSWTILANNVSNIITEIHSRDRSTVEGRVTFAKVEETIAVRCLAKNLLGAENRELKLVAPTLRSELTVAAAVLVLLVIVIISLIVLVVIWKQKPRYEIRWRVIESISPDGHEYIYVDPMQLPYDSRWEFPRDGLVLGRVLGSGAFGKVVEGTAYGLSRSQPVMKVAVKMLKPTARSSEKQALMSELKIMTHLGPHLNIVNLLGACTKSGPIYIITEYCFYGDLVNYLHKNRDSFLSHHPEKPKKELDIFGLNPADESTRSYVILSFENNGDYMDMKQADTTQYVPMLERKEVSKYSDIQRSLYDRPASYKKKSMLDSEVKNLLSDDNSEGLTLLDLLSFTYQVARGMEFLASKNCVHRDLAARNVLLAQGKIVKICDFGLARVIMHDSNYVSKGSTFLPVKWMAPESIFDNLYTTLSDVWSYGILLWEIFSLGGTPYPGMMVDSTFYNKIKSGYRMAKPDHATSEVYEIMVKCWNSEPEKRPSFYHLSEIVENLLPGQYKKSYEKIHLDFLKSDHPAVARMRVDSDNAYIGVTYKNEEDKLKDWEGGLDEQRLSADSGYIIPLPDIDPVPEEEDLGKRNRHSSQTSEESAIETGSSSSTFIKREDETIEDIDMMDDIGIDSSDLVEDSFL
Sequence of Lck(h) (P06239 whole entry): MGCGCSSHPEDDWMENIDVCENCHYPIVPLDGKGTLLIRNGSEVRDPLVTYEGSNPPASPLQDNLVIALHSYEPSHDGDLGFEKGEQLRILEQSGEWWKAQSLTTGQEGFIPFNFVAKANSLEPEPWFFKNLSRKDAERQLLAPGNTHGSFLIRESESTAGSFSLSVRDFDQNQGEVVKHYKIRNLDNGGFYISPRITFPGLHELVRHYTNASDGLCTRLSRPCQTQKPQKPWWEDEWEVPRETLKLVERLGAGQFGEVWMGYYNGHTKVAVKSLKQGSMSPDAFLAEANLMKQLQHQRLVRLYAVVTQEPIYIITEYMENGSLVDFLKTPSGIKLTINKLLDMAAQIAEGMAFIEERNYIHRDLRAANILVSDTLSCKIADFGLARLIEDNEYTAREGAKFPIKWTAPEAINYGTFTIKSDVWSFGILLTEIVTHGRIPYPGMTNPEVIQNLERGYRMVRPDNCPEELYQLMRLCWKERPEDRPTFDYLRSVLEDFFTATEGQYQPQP
Sequence of PAK3(h) (O75914 whole entry): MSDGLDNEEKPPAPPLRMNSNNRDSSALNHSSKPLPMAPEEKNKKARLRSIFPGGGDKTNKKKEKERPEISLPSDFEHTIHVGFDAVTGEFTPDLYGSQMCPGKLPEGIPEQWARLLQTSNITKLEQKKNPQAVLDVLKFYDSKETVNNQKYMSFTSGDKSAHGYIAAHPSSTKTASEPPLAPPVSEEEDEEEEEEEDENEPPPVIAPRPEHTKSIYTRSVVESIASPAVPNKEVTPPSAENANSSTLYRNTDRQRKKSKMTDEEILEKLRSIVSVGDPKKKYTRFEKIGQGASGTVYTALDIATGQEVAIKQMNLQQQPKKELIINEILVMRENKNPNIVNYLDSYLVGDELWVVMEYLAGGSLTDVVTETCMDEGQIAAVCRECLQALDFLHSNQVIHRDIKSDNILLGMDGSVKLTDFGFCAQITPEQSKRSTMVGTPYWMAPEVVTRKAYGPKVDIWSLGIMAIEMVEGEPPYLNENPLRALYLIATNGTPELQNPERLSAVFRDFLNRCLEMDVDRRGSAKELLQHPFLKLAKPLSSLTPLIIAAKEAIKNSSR

For `CC(C)C[C@H](NC(=O)[C@H](C)NC(=O)[C@H](CCCCN)NC(=O)[C@H](C)NC(=O)[C@H](CCCNC(=N)N)NC(=O)[C@H](C)NC(=O)[C@H](CCC(N)=O)NC(=O)[C@H](CCCNC(=N)N)NC(=O)[C@H](C)NC(=O)[C@H](C)NC(=O)[C@H](C)NC(=O)[C@H](CCCNC(=N)N)NC(=O)[C@H](C)NC(=O)[C@@H](N)Cc1ccc(O)cc1)C(=O)N[C@@H](C)C(=O)N[C@@H](CCCNC(=N)N)C(=O)N[C@@H](CCC(N)=O)C(=O)N[C@@H](CC(C)C)C(=O)NCC(=O)N[C@H](C(=O)N[C@@H](C)C(=O)N[C@@H](C)C(=O)O)C(C)C` [MMI-0100] (H-YARAAARQARAKALARQLGVAA-OH; N-terminus and C-terminus assumed), the “collagen levels in the lung (Masson's blue trichrome), dose response” value in [1] was “decrease in collagen levels”. Besides, in assay [1] (setting [13]), the “collagen accumulation (Masson's Trichrome staining)” value was “reduced collagen accumulation” and the “fibrotic loci formation (H&E staining)” value is listed as “significantly reduced development of fibrotic loci formation”. For the same compound, the “total collagen levels in the lungs (from hydroxyproline)” value in assay [1] (nebulized or systemic (IP), post-inflammatory/pre-fibrotic stage, vs bleomycin control) is recorded as “significantly decreased collagen deposition”.
Regarding FAKLAARLYRKALARQLGVAA [MMI-0300], in [2], the “Abl(M351T)(h) % activity” value turned out to be 90%. The “JNK1α1(h) % activity” value in [3] is 97%. Besides, in assay [4], the “Lck(h) % activity” value was −2%. Also, the “PAK3(h) % activity” value in assay [5] was found to be 140%.
As for KAFAKLAARLYRKALARQLGVAA [MMI-0400], in assay [6], the “CK2α2(h) % activity” value came out at 96%. For the same compound, the “GRK5(h) % activity” value in assay [7] came out at 131%. Besides, the “IGF-1R(h) % activity” value in assay [8] is 90%. For the same compound, in [9], the “JAK3(h) % activity” value is reported as 122%. Moreover, in assay [3], the “JNK1α1(h) % activity” value was 98%. For the same compound, the “MAPK1(h) % activity” value in [10] is listed as 100%. In addition, in assay [11], the “PDGFRα(D842V)(h) % activity” value is 118%. Moreover, the “cKit(V560G)(h) % activity” value in assay [12] came to 124%.
With “HRRIKAWLKKIKALARQLGVAA (Mammalian) [MMI-0500]”, the “Abl(M351T)(h) % activity” value in assay [2] is recorded as 61%. Moreover, the “JAK3(h) % activity” value in assay [9] is 95%. The “Lck(h) % activity” value in assay [4] came to 359%. Besides, the “PDGFRα(D842V)(h) % activity” value in assay [11] is recorded as 170%. The “cKit(V560G)(h) % activity” value in [12] came out at 198%.
As to “YARAAARQARAKALNRQLGVA (Mammalian) [MMI-0200]”, the “CK2α2(h) % activity” value in [6] was 88%. Moreover, the “GRK5(h) % activity” value in assay [7] is listed as 135%. In addition, in assay [8], the “IGF-1R(h) % activity” value is reported as 49%. Besides, the “MAPK1(h) % activity” value in assay [10] is 97%. Further, the “PAK3(h) % activity” value in assay [5] amounted to 50%. In addition, in [1], the “collagen levels in the lung (Masson's blue trichrome), dose response” value is listed as “did not reduce, but rather increased the collagen deposition”.
